Source: US20230048200

Target: Human type 1 atelo-collagen (UniProt P02452)
Sequence (P02452 179-1192, chain 1 of 2): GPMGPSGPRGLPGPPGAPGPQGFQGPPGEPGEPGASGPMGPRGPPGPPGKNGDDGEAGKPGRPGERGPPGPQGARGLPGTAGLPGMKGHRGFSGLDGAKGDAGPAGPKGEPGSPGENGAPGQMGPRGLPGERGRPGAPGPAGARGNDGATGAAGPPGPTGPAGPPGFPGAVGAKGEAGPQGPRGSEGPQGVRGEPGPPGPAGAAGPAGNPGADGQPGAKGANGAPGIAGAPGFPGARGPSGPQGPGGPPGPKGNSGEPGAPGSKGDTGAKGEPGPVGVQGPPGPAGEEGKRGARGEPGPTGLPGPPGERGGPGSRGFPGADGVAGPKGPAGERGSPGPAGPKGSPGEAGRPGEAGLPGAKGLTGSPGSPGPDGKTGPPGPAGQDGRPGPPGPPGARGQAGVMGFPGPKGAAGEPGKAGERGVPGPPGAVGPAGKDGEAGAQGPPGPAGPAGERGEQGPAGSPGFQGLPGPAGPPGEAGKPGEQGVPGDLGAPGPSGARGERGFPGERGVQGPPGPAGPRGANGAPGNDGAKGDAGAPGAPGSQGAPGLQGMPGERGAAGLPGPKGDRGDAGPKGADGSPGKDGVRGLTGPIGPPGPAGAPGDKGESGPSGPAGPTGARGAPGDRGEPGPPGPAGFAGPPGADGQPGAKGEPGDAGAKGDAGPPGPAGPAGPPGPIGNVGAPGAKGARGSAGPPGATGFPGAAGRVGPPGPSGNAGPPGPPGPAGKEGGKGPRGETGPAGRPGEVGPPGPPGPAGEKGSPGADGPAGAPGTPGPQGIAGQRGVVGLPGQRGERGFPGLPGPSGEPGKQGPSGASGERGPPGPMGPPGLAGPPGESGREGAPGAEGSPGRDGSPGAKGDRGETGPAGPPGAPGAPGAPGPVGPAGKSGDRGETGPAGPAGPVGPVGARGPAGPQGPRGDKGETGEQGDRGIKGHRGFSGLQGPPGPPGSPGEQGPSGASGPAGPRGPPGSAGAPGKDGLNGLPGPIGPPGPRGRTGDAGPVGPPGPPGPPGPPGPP
Sequence (chain, as listed by the source, chain 2 of 2): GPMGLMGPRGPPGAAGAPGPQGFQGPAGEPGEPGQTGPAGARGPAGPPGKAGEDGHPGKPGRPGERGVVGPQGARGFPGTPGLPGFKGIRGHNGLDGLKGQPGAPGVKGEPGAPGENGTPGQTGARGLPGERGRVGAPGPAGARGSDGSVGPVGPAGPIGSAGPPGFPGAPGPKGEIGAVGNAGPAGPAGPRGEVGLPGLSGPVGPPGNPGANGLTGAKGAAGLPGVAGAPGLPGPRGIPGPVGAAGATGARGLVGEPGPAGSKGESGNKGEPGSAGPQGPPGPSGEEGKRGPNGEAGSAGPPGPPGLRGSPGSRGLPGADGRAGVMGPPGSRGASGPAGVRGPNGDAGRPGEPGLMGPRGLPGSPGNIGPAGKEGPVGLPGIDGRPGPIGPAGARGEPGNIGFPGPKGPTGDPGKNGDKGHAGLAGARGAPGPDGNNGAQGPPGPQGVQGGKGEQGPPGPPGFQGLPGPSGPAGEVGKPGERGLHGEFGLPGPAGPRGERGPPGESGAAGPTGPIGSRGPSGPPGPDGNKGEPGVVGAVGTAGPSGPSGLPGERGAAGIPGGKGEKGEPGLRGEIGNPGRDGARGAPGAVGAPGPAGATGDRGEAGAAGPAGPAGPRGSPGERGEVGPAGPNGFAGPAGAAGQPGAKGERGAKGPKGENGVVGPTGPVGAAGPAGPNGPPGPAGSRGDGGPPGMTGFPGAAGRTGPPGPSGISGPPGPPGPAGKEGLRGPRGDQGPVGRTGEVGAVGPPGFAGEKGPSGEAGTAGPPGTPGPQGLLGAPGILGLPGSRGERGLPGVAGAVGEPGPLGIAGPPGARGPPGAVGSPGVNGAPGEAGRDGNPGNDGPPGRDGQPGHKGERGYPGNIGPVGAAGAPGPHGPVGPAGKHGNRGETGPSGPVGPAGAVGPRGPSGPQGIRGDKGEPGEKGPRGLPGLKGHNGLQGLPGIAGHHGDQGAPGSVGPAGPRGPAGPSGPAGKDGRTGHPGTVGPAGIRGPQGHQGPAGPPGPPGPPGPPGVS

## matrix metalloproteinase-1 (MMP-1), activated with 2 mM APMA
  reduction in the full length alpha1(I) and alpha2(I) chains (SDS-PAGE, band quantitation): an approximately 7.4-fold (over 80%) reduction in the full length of these chains when collagen was treated with MMP-1
